B2: Human papillomavirus 16 E7 (other)
chain: MHGDTPTLHEYMLDLQPETTDLYCYEQLNDSSEEEDEIDGPAGQAEPDRAHYNIVTFCCKCDSTLRLCVQSTHVDIRTLEDLLMGTLGIVCPICSQKP
notes: also called HPV 16 E7; HPV16 E7
B5: Human papillomavirus 16 E2 (other)
chain: METLCQRLNVCQDKILTHYENDSTDLRDHIDYWKHMRLECAIYYKAREMGFKHINHQVVPTLAVSKNKALQAIELQLTLETIYNSQYSNEKWTLQDVSLEVYLTAPTGCIKKHGYTVEVQFDGDICNTMHYTNWTHIYICEEASVTVVEGQVDYYGLYYVHEGIRTYFVQFKDDAEKYSKNKVWEVHAGGQVILCPTSVFSSNEVSSPEIIRQHLANHPAATHTKAVALGTEETQTTIQRPRSEPDTGNPCHTTKLLHRDSVDSAPILTAFNSSHKGRINCNSNTTPIVHLKGDANTLKCLRYRFKKHCTLYTAVSSTWHWTGHNVKHKSAIVTLTYDSEWQRDQFLSQVKIPKTITVSTGFMSI
notes: also called HPV 16 E2; cbe_251088

The target in experiment [1] is B5. The experiment in a line: Y2H; INT ID 150.
The target in a further experiment is T1, keratin 4 (human, UniProt P19013 1-520).
T1 construct: also called KRT4; cbe_3474077
T1 sequence (P19013 other isoform, or with tags, fused parts or gaps limits assumed): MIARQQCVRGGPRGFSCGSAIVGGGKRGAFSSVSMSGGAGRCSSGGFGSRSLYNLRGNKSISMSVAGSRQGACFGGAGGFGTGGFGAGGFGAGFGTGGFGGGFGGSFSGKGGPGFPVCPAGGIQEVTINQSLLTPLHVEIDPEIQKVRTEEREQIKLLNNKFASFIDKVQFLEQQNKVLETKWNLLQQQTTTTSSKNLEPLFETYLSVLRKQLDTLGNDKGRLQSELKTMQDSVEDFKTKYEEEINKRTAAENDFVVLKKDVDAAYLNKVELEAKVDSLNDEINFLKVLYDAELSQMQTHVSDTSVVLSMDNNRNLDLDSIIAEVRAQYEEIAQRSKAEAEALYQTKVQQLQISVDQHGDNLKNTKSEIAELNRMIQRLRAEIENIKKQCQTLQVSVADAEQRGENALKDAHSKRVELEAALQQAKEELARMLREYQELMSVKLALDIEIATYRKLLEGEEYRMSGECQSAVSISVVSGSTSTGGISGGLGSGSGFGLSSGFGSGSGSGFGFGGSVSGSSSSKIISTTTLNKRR
Put plainly: Y2H; INT ID 168.

Experiment [2] concerns the target T2, zinc finger protein ZNF140-like protein (human, UniProt Q9NR11 1-478).
T2 construct: also called LOC55828; cbe_3787129
Put plainly: Y2H; INT ID 170.

The target in experiment [3] is T3, tissue factor pathway inhibitor (lipoprotein-associated coagulation inhibitor) (human, UniProt P10646 29-304).
T3 construct: also called TFPI; cbe_3834015
T3 sequence: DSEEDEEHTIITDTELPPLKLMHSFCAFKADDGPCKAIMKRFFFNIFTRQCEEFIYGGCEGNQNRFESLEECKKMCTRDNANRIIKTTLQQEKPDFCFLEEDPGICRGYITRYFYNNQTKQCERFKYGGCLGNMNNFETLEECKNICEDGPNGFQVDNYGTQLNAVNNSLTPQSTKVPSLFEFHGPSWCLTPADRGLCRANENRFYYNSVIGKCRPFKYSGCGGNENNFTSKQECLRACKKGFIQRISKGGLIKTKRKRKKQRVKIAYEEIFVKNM
Put plainly: Y2H; INT ID 172.

For the next experiment, the target named is T4, MPP3 (human, UniProt Q13368 1-585).
T4 construct: also called cbe_3921620
T4 sequence: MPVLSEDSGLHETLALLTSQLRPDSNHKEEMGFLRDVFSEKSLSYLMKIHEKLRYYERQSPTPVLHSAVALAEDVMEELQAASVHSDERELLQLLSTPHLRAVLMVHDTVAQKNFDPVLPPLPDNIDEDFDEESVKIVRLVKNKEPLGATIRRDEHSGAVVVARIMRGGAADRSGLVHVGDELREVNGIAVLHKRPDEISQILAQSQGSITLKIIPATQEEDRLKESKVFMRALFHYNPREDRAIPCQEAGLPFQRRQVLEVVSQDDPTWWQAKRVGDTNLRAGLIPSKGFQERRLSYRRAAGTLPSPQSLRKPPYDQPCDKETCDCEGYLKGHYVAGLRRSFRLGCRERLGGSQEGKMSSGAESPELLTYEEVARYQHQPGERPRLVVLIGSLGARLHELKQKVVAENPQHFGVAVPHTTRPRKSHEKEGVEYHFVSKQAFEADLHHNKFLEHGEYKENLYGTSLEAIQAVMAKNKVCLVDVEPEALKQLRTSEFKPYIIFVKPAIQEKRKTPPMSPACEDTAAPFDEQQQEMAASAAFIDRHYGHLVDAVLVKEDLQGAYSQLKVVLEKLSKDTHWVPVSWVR
The experiment in a line: Y2H; INT ID 173.

Another experiment deals with T5, PTPN21 (human, UniProt Q16825 1-1174).
T5 construct: also called cbe_4260642
T5 sequence: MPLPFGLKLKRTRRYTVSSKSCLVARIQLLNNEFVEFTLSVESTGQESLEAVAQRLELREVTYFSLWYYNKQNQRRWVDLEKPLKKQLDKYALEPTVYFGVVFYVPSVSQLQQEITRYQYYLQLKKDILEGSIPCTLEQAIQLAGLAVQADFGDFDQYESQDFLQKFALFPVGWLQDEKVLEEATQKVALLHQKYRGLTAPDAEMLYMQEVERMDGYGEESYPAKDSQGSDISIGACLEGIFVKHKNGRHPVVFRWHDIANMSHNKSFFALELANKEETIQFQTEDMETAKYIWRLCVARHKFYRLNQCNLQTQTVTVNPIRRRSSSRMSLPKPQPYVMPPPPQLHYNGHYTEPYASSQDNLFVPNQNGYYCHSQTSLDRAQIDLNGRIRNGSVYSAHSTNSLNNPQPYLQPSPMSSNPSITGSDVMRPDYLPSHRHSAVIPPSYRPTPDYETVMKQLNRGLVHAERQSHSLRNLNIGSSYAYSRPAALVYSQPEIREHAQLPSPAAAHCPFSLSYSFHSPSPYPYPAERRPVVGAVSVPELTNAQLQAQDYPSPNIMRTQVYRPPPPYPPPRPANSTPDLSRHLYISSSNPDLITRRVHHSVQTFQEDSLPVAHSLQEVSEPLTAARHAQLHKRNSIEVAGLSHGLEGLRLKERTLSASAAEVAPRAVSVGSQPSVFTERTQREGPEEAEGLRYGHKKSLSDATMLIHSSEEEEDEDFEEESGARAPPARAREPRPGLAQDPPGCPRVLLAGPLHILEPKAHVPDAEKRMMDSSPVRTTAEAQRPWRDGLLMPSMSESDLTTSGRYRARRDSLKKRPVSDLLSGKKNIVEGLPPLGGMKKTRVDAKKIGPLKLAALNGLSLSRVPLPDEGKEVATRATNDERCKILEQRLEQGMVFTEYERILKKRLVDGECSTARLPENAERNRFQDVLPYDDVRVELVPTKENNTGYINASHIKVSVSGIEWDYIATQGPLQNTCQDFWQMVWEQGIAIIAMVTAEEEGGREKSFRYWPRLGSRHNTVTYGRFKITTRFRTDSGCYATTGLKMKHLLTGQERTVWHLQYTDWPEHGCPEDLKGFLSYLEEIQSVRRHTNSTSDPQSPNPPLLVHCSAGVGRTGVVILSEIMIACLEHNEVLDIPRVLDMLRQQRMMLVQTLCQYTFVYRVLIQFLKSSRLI
The experiment in a line: Y2H; INT ID 174.

Another experiment has as its target T6, NDUFS3 (human, UniProt O75489 37-264).
T6 construct: also called cbe_4268611
Put plainly: Y2H; INT ID 176.

The target of the next experiment is T7, PSMC1 (human, UniProt P62191 2-440).
T7 construct: also called proteosome 26S subunit; proteosome subunit PMSC1
T7 sequence (P62191 2-440 limits assumed): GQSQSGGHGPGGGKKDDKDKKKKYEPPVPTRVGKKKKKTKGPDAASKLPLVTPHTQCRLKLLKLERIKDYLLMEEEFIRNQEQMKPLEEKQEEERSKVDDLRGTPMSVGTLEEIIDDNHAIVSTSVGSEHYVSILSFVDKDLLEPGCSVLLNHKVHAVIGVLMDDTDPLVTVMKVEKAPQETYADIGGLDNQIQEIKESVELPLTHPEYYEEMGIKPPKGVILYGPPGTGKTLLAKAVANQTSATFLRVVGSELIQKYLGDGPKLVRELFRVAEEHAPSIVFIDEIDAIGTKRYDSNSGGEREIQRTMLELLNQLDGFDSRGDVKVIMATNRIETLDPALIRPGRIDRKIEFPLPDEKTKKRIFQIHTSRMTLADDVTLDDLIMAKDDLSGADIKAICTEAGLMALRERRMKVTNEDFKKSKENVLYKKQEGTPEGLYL
The experiment in a line: Y2H; INT ID 179.

For the next experiment, the target named is T8, STX4A (human, UniProt Q12846 1-297).
T8 construct: also called syntaxin 4; cbe_4270186
T8 sequence: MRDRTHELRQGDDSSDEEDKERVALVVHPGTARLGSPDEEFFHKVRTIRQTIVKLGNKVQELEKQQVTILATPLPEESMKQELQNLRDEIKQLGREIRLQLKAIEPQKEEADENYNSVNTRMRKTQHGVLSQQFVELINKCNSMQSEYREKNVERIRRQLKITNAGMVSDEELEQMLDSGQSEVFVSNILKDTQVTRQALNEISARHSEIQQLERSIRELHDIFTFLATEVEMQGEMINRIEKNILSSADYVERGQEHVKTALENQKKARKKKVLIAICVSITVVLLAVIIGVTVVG
The experiment in a line: Y2H; INT ID 181.

Experiment [4] concerns the target B5. Put plainly: Y2H; INT ID 151.
The target in experiment [5] is B2. Put plainly: Y2H; INT ID 169.
Experiment [6] addresses T9, Human Papillomavirus 1a L2 (Human Papillomavirus 1a, UniProt P03105 1-507).
T9 construct: also called HPV 1a L2; cbe_252041
T9 sequence: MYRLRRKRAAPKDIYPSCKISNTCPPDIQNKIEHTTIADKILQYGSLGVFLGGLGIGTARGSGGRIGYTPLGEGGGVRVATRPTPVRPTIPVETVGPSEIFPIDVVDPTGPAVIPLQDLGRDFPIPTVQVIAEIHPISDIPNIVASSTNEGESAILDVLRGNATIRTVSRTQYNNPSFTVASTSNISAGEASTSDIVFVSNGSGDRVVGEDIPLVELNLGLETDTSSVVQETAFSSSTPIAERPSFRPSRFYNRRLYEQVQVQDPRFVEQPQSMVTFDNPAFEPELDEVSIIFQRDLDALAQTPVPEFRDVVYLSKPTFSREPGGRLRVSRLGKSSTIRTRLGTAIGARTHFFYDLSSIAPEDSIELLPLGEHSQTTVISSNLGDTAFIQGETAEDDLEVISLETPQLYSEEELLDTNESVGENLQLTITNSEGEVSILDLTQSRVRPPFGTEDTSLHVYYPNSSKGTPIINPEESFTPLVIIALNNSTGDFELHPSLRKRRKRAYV
The experiment in a line: Y2H; INT ID 146.

The next experiment concerns the target T10, EFEMP1 (human, UniProt Q12805 18-493).
T10 construct: also called cbe_2321057
T10 sequence: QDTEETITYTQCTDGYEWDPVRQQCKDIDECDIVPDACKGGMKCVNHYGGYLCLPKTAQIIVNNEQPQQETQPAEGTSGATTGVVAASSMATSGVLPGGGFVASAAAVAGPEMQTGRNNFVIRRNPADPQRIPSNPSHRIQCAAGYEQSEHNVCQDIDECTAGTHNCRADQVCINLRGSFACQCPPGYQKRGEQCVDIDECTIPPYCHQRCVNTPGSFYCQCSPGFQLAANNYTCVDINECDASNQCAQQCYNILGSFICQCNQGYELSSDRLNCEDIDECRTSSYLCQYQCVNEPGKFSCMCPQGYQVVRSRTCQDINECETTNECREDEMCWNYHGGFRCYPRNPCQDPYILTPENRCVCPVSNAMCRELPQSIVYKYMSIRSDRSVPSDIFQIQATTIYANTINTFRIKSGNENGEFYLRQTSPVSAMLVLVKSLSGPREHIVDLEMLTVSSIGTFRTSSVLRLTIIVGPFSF
The experiment in a line: Y2H; INT ID 147.

T2 sequence (Q9NR11 whole entry): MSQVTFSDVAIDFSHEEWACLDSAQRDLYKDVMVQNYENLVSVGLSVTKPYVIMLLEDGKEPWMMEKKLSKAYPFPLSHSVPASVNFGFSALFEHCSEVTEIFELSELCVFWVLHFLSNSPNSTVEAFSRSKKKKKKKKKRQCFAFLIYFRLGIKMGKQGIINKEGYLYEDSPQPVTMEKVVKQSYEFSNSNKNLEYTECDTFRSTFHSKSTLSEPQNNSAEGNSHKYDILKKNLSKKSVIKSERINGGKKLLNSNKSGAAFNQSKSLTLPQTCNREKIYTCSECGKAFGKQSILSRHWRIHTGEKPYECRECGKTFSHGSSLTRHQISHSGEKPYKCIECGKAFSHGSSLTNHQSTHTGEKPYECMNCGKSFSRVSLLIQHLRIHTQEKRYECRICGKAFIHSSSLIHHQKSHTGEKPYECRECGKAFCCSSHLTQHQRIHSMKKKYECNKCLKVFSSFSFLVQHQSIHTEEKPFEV
T6 sequence (O75489 37-264 limits assumed): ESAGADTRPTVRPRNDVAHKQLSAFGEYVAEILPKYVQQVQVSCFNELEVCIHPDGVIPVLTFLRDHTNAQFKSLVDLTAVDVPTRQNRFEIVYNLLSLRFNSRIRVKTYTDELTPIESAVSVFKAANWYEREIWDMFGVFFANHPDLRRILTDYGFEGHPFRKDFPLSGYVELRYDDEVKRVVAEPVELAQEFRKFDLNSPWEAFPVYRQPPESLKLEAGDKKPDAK

B1: DAD1 (other)
chain: SASVVSVISRFLEEYLSSTPQRLKLLDAYLLYILLTGALQFGYCLLVGTFPFNSFLSGFISCVGSFILAVCLRIQINPQNKADFQGISPERAFADFLFASTILHLVVMNFVG
notes: also called cbe_4268208
Turning to B1, the binding result in [1] was “binds”.

Turning to B2, the binding result (in the experiment with keratin 4; in experiment [2]; in experiment [3]; in the experiment with MPP3; with PTPN21; in the experiment with NDUFS3) was “binds” throughout. Besides, the binding result with PSMC1 and in the experiment with STX4A was “binds” each time.

B3: soggy-1 gene (other)
chain: APIHDADAQESSLGLTGLQSLLQGFSRLFLKGNLLRGIDSLFSAPMDFRGLPGNYHKEENQEHQLGNNTLSSHLQIDKMTDNKTGEVLISENVVASIQPAEGSFEGDLKVPRMEEKEALVPIQKATDSFHTELHPRVAFWIIKLPRRRSHQDALEGGHWLSEKRHRLQAIRDGLRKGTHKDVLEEGTESSSHSRLSPRKTHLLYILRPSRQL
notes: also called DKKL1-pending; cbe_4279962
Turning to B3, the binding result in experiment [4] is recorded as “binds”.

B4: eukaryotic translation elongation factor 1 alpha 1-like 14 (other)
chain: MQSERGITIDISLWKFETSKYYVTIIDAPGHRDFIQNMITGTSQADCAVLIVAAGVGEFEAGISKNGQTREHALLAYTLGVKQLIVGVNKMDSTEPPYSQKRYEEIVKEVSTYIKKIGYNPDTVAFVPISGWNGDNMLEPSANMPWFKGWKVTRKDGNASGTTLLEALDCILPPTRPTDKPLGLPLQDVYKIGGIGTVPVGRVETGVLKPGMVVTFGPVNVTTEVKSVEMHHEALGEALPGDNVGFNVKNVSVKDVRRGNVAGDSKNDPPMEAAGFPAQVIILNHPGQISAGYAPVLDCHTAHIACKFAELKEKIDRRSGKKLEDGPKFLKSGDAAIVDMVPGKPMCVESFSDYPPLGCFAVRDMRQTVAVGVIKAVDKKAAGAGKVTKSAQKAQKAK
notes: also called EEF1A1L14; cbe_3773649
Turning to B4, the binding result in experiment [5] is reported as “binds”.

Turning to B5, the binding result (in [6]; with EFEMP1) was “binds” throughout.
